Experimental data from PMC4971460.

Target: MBP-GS fusion construct Δ2 (not stated | E. coli) [MBP: P0AEX9]
Assay: cryo-EM structure

Work on “MBP-GS fusion construct Δ2 (from UniProt P0AEX9 27-396; P0A9C5 3-469)” yielded a stoichiometry N of 12.
